Results as given in US20260008815A1, “CYCLIC PEPTIDE OR SALT THEREOF, AND USES THEREOF” (FUJIFILM Corporation, priority 2023, published 2026).
Bridge positions count the residues as written; N and C are the ends. Ends that are not written are not given here. COCH2 = acetyl group that carries the bridge

Target: T1, Recombinant Human FGFR2 alpha (IIIc) Fc Chimera Protein (Homo sapiens, UniProt P21802)
T1 construct: Fc (chimera); purchased R&D systems 712-FR-050
Experiment: ELISA binding affinity of enzymatically synthesized peptide to FGFR
Conditions: ELISA luminescence signal at 10 nmol/L peptide, SEQ ID NO: 47 at 10 nmol/L standardized to 1; enzyme synthesis product
Procedure, shortened: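 FGFR2 alpha (IIIc) Fc chimera (5 ng/well) was immobilized, and Myc-tagged peptide was bound 3 h at room temperature, then detected with anti-Myc antibody (2 h) and chemiluminescent substrate. Signal was corrected against FGFR-free wells. Score A–D was the luminescence at 10 nmol/L peptide, normalized to cyclic peptide SEQ ID NO: 47.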

T1 sequence (P21802 with tags, fused parts or gaps limits assumed): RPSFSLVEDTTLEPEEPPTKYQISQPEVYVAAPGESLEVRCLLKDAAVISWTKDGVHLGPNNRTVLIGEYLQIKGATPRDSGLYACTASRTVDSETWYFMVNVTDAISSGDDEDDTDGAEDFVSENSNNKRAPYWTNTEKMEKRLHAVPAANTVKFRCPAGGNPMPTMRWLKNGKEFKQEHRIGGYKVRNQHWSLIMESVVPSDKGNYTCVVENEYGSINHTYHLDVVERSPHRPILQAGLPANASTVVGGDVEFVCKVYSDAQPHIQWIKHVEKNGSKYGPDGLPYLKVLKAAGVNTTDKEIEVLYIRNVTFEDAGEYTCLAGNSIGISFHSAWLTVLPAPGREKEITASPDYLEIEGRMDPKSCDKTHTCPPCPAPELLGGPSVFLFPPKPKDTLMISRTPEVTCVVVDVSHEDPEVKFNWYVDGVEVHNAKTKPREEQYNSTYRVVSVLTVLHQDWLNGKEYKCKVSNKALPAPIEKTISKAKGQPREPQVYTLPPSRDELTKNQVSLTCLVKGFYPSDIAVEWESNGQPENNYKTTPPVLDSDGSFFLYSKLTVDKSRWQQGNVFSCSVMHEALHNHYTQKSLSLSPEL

340 (YCEENYLKPEQYQYFIYFK(COCH2)Y; thioether 2-19) [compound 340]
Evaluation result of binding affinity to FGFR: C (0.1 or more and less than 0.5)

341 (YCEENYLDKEQYQYFIYFK(COCH2)Y; thioether 2-19) [compound 341]
Evaluation result of binding affinity to FGFR: A (0.7 or more)

342 (YCEENYLDPKQYQYFIYFK(COCH2)Y; thioether 2-19) [compound 342]
Evaluation result of binding affinity to FGFR: A (0.7 or more)

343 (YCEENYLDPEQYKYFIYFK(COCH2)Y; thioether 2-19) [compound 343]
Evaluation result of binding affinity to FGFR: A (0.7 or more)

344 (YCEENYLDPEQYQYFKYFK(COCH2)Y; thioether 2-19) [compound 344]
Evaluation result of binding affinity to FGFR: A (0.7 or more)

345 (YCEENYLDPEQYQYFIKFK(COCH2)Y; thioether 2-19) [compound 345]
Evaluation result of binding affinity to FGFR: A (0.7 or more)

346 (YCEENYLDPEQYQYFIYFK(COCH2)K; thioether 2-19) [compound 346]
Evaluation result of binding affinity to FGFR: A (0.7 or more)

347 (MCEENYLDPEQYQYFIYFK(COCH2)Y; thioether 2-19) [compound 347]
Evaluation result of binding affinity to FGFR: A (0.7 or more)

348 (YCMENYLDPEQYQYFIYFK(COCH2)Y; thioether 2-19) [compound 348]
Evaluation result of binding affinity to FGFR: A (0.7 or more)

349 (YCEMNYLDPEQYQYFIYFK(COCH2)Y; thioether 2-19) [compound 349]
Evaluation result of binding affinity to FGFR: A (0.7 or more)

350 (YCEENMLDPEQYQYFIYFK(COCH2)Y; thioether 2-19) [compound 350]
Evaluation result of binding affinity to FGFR: A (0.7 or more)

351 (YCEENYMDPEQYQYFIYFK(COCH2)Y; thioether 2-19) [compound 351]
Evaluation result of binding affinity to FGFR: A (0.7 or more)

352 (YCEENYLMPEQYQYFIYFK(COCH2)Y; thioether 2-19) [compound 352]
Evaluation result of binding affinity to FGFR: A (0.7 or more)

353 (YCEENYLDMEQYQYFIYFK(COCH2)Y; thioether 2-19) [compound 353]
Evaluation result of binding affinity to FGFR: A (0.7 or more)

354 (YCEENYLDPMQYQYFIYFK(COCH2)Y; thioether 2-19) [compound 354]
Evaluation result of binding affinity to FGFR: A (0.7 or more)

355 (YCEENYLDPEQMQYFIYFK(COCH2)Y; thioether 2-19) [compound 355]
Evaluation result of binding affinity to FGFR: C (0.1 or more and less than 0.5)

356 (YCEENYLDPEQYMYFIYFK(COCH2)Y; thioether 2-19) [compound 356]
Evaluation result of binding affinity to FGFR: A (0.7 or more)

357 (YCEENYLDPEQYQMFIYFK(COCH2)Y; thioether 2-19) [compound 357]
Evaluation result of binding affinity to FGFR: C (0.1 or more and less than 0.5)

358 (YCEENYLDPEQYQYFMYFK(COCH2)Y; thioether 2-19) [compound 358]
Evaluation result of binding affinity to FGFR: A (0.7 or more)

359 (YCEENYLDPEQYQYFIMFK(COCH2)Y; thioether 2-19) [compound 359]
Evaluation result of binding affinity to FGFR: A (0.7 or more)

360 (YCEENYLDPEQYQYFIYFK(COCH2)M; thioether 2-19) [compound 360]
Evaluation result of binding affinity to FGFR: A (0.7 or more)

361 (QCYYLYWYLYK(COCH2)I; thioether 2-11) [compound 361]
Evaluation result of binding affinity to FGFR: C (0.1 or more and less than 0.5)

362 (LCYLYQYLYTTK(COCH2)Y; thioether 2-12) [compound 362]
Evaluation result of binding affinity to FGFR: C (0.1 or more and less than 0.5)

363 (LCYLYQYIYTAK(COCH2)F; thioether 2-12) [compound 363]
Evaluation result of binding affinity to FGFR: C (0.1 or more and less than 0.5)

364 (QCLQYLYQYLFK(COCH2)I; thioether 2-12) [compound 364]
Evaluation result of binding affinity to FGFR: C (0.1 or more and less than 0.5)

365 (LCYLYQYLYQAK(COCH2)F; thioether 2-12) [compound 365]
Evaluation result of binding affinity to FGFR: C (0.1 or more and less than 0.5)

366 (DCQQYYLYLYLWK(COCH2)I; thioether 2-13) [compound 366]
Evaluation result of binding affinity to FGFR: C (0.1 or more and less than 0.5)

367 (HCQLEYLYTYVLK(COCH2)I; thioether 2-13) [compound 367]
Evaluation result of binding affinity to FGFR: C (0.1 or more and less than 0.5)

368 (QCLIQDLYAYIFK(COCH2)L; thioether 2-13) [compound 368]
Evaluation result of binding affinity to FGFR: C (0.1 or more and less than 0.5)

369 (DCLQFLYLYLYQK(COCH2)T; thioether 2-13) [compound 369]
Evaluation result of binding affinity to FGFR: C (0.1 or more and less than 0.5)

370 (DCQLYYLYQYVLTK(COCH2)V; thioether 2-14) [compound 370]
Evaluation result of binding affinity to FGFR: C (0.1 or more and less than 0.5)

371 (DCQLWYLYQYLIVK(COCH2)A; thioether 2-14) [compound 371]
Evaluation result of binding affinity to FGFR: C (0.1 or more and less than 0.5)

372 (QCEQLKYLYQYVLK(COCH2)L; thioether 2-14) [compound 372]
Evaluation result of binding affinity to FGFR: C (0.1 or more and less than 0.5)

373 (QCYNYQYIYQYIYK(COCH2)I; thioether 2-14) [compound 373]
Evaluation result of binding affinity to FGFR: C (0.1 or more and less than 0.5)

374 (QCLQDLYRYLYLLK(COCH2)A; thioether 2-14) [compound 374]
Evaluation result of binding affinity to FGFR: C (0.1 or more and less than 0.5)

375 (DCLQFIYQYLYTVK(COCH2)I; thioether 2-14) [compound 375]
Evaluation result of binding affinity to FGFR: C (0.1 or more and less than 0.5)

376 (QCIQDLYLYLYFLK(COCH2)T; thioether 2-14 (inferred)) [compound 376]
Evaluation result of binding affinity to FGFR: C (0.1 or more and less than 0.5)

377 (HCLHYLYQYLYTVK(COCH2)Y; thioether 2-14 (inferred)) [compound 377]
Evaluation result of binding affinity to FGFR: C (0.1 or more and less than 0.5)

378 (QCPRQLYYLYLYLSK(COCH2)I; thioether 2-15 (inferred)) [compound 378]
Evaluation result of binding affinity to FGFR: C (0.1 or more and less than 0.5)

379 (NCQLYYTYLYLHTLK(COCH2)F; thioether 2-15 (inferred)) [compound 379]
Evaluation result of binding affinity to FGFR: C (0.1 or more and less than 0.5)

380 (YCPPQLVYLYQYLYK(COCH2)L; thioether 2-15 (inferred)) [compound 380]
Evaluation result of binding affinity to FGFR: C (0.1 or more and less than 0.5)

381 (VCQEYYLYQYVYELK(COCH2)Y; thioether 2-15 (inferred)) [compound 381]
Evaluation result of binding affinity to FGFR: C (0.1 or more and less than 0.5)

382 (PCDRQLYYLYQYIHK(COCH2)T; thioether 2-15 (inferred)) [compound 382]
Evaluation result of binding affinity to FGFR: C (0.1 or more and less than 0.5)

383 (QCQLYYLYQYAYALK(COCH2)V; thioether 2-15 (inferred)) [compound 383]
Evaluation result of binding affinity to FGFR: C (0.1 or more and less than 0.5)

384 (QCQLYYLYQYTIAIK(COCH2)T; thioether 2-15 (inferred)) [compound 384]
Evaluation result of binding affinity to FGFR: C (0.1 or more and less than 0.5)

385 (QCAYYHLYQYLHQLK(COCH2)V; thioether 2-15 (inferred)) [compound 385]
Evaluation result of binding affinity to FGFR: B (0.5 or more and less than 0.7)

386 (RCHHNFHHARQWGFFHHYK(COCH2)R; thioether 2-19 (inferred)) [compound 386]
Evaluation result of binding affinity to FGFR: B (0.5 or more and less than 0.7)

387 (RCHHNFHHARQHRFFHHYK(COCH2)R; thioether 2-19 (inferred)) [compound 387]
Evaluation result of binding affinity to FGFR: C (0.1 or more and less than 0.5)

388 (RCHHNFHHARQHGFFYHYK(COCH2)R; thioether 2-19 (inferred)) [compound 388]
Evaluation result of binding affinity to FGFR: C (0.1 or more and less than 0.5)

389 (RCHHNFHHARQHGFFWHYK(COCH2)R; thioether 2-19 (inferred)) [compound 389]
Evaluation result of binding affinity to FGFR: C (0.1 or more and less than 0.5)

390 (YCEENYLDPEQYQYFHYFK(COCH2)R; thioether 2-19 (inferred)) [compound 390]
Evaluation result of binding affinity to FGFR: C (0.1 or more and less than 0.5)

391 (YCEENYLDPEQYQYFHYFK(COCH2)H; thioether 2-19 (inferred)) [compound 391]
Evaluation result of binding affinity to FGFR: A (0.7 or more)

392 (YCHENYLDPEQYQYFHYFK(COCH2)Y; thioether 2-19 (inferred)) [compound 392]
Evaluation result of binding affinity to FGFR: A (0.7 or more)

393 (YCHENYLDPEQHQYFHYFK(COCH2)Y; thioether 2-19 (inferred)) [compound 393]
Evaluation result of binding affinity to FGFR: C (0.1 or more and less than 0.5)

394 (YCHENYLDPEQYQYFHYFK(COCH2)R; thioether 2-19 (inferred)) [compound 394]
Evaluation result of binding affinity to FGFR: B (0.5 or more and less than 0.7)

395 (YCHENYLDPEQYQYFHYFK(COCH2)H; thioether 2-19 (inferred)) [compound 395]
Evaluation result of binding affinity to FGFR: A (0.7 or more)
